Experiments:
AncSZ = experiment: phosphorylation enrichment, bacterial display (enrichment ratio); higher = better substrate or ligand; peptides without Tyr show the background
EPHB1 = EPHB1 (UniProt P54762); experiment: as above
EPHB2 = EPHB2 (UniProt P29323); experiment: as above
FGFR1 = FGFR1 (UniProt P11362); experiment: as above
FGFR3 = FGFR3 (UniProt P22607); experiment: as above
Fer (mouse) = experiment: as above
Fes = Fes (UniProt P07332); experiment: as above
Fyn = Fyn (UniProt P06241); experiment: as above
Hck = Hck (UniProt P08631); experiment: as above
Jak2 = Jak2 (UniProt O60674); experiment: as above
MERTK = MERTK (UniProt Q12866); experiment: as above
c-Abl (mouse) = experiment: as above
c-Src = experiment: as above
Grb2 SH2 = Grb2 SH2 (UniProt P62993); experiment: SH2 binding enrichment of the phosphorylated peptide, bacterial display (enrichment ratio); higher = better substrate or ligand; peptides without Tyr show the background
SHP2-C SH2 = experiment: as above
c-Src SH2 = experiment: as above
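For SH2 binding enrichment of the phosphorylated peptide, bacterial display in this document: peptide library displayed on the E. coli surface as eCPX fusions, selected cells deep-sequenced, score is each peptide's frequency after selection divided by its frequency in the input.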
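For phosphorylation enrichment, bacterial display in this document: 11-residue human phosphosite peptides and single-mutation variants displayed on the E. coli surface, counted by deep sequencing, each peptide's frequency after selection divided by its frequency in the unselected input library; frequency after pTyr selection over input frequency; kinase dosed for 20-30% of maximal phosphorylation in three min.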

Chain of MERTK (Q12866 whole entry, looked up): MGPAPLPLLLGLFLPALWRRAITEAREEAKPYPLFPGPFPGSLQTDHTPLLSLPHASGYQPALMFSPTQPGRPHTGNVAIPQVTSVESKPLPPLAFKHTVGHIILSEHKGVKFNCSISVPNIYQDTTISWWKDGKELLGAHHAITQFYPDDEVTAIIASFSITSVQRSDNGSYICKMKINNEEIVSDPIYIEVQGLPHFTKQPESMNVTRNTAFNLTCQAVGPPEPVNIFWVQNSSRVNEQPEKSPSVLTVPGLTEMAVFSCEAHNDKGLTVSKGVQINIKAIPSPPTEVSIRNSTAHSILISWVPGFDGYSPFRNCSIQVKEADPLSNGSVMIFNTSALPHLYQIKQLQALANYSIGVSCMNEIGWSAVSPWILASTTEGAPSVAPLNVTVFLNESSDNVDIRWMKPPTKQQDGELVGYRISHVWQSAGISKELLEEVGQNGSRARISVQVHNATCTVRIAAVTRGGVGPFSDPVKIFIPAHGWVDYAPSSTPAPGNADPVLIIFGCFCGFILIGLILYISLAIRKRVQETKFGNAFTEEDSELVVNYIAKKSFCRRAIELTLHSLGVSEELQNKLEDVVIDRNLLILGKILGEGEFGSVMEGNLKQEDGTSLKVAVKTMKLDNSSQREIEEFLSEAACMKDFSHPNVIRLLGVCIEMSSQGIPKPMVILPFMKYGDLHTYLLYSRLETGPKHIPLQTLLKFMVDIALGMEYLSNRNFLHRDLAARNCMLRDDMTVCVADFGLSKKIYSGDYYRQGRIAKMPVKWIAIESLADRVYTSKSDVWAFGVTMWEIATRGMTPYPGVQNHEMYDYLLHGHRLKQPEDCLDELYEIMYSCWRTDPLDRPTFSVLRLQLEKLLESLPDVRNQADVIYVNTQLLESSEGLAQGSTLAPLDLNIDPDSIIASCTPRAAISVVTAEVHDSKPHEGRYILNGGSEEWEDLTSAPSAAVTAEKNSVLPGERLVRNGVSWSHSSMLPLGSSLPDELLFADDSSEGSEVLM
Chain of Jak2 (O60674 whole entry, looked up): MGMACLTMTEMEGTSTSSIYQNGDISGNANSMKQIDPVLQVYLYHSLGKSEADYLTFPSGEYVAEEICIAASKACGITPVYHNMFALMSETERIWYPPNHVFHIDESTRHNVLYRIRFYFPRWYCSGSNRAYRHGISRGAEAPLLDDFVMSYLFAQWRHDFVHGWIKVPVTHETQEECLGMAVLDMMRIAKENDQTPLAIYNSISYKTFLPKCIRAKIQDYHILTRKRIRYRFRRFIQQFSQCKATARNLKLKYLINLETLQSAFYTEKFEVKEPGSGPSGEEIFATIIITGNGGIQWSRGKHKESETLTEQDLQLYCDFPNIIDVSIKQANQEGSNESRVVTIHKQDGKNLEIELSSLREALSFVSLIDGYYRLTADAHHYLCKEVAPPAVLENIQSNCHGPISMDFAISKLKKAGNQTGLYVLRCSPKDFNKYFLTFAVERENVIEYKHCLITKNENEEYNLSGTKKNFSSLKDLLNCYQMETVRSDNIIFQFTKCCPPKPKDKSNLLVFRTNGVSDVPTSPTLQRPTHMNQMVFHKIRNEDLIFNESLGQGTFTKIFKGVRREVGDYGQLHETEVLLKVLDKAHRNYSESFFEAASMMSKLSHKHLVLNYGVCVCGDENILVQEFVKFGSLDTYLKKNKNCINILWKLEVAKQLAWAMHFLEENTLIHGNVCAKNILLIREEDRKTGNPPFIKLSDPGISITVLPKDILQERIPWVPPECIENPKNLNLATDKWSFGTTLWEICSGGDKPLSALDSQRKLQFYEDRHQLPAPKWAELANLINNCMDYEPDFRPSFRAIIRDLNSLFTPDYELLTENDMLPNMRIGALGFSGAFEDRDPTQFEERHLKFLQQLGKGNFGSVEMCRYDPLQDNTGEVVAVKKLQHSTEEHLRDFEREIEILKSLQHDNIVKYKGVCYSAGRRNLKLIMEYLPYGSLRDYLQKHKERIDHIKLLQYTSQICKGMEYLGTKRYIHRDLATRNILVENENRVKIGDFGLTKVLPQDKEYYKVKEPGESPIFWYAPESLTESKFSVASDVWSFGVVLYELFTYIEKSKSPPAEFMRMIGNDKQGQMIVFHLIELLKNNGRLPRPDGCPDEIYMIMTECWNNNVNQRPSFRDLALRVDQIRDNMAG
Chain of FGFR1 (P11362 whole entry, looked up): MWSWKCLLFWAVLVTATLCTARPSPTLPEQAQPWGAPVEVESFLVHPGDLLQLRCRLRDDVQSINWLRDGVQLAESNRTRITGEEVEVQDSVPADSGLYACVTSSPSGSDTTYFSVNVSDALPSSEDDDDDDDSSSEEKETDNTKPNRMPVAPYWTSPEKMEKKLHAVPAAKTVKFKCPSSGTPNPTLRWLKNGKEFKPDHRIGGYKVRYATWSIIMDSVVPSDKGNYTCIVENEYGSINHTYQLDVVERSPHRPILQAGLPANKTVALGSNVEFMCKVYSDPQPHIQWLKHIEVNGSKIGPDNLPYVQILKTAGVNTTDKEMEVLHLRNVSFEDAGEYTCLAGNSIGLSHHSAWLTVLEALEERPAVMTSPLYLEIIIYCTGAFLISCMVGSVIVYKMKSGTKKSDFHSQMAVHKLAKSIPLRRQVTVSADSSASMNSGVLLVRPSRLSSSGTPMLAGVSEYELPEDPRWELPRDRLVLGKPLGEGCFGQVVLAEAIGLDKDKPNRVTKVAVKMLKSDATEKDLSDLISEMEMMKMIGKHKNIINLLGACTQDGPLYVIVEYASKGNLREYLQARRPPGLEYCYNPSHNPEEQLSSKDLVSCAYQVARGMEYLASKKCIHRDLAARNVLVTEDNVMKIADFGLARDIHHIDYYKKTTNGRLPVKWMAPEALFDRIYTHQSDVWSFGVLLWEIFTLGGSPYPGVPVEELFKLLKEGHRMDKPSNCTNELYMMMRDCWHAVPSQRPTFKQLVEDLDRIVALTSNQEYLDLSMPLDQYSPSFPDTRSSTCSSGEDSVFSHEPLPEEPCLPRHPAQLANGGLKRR
Chain of EPHB2 (P29323 whole entry, looked up): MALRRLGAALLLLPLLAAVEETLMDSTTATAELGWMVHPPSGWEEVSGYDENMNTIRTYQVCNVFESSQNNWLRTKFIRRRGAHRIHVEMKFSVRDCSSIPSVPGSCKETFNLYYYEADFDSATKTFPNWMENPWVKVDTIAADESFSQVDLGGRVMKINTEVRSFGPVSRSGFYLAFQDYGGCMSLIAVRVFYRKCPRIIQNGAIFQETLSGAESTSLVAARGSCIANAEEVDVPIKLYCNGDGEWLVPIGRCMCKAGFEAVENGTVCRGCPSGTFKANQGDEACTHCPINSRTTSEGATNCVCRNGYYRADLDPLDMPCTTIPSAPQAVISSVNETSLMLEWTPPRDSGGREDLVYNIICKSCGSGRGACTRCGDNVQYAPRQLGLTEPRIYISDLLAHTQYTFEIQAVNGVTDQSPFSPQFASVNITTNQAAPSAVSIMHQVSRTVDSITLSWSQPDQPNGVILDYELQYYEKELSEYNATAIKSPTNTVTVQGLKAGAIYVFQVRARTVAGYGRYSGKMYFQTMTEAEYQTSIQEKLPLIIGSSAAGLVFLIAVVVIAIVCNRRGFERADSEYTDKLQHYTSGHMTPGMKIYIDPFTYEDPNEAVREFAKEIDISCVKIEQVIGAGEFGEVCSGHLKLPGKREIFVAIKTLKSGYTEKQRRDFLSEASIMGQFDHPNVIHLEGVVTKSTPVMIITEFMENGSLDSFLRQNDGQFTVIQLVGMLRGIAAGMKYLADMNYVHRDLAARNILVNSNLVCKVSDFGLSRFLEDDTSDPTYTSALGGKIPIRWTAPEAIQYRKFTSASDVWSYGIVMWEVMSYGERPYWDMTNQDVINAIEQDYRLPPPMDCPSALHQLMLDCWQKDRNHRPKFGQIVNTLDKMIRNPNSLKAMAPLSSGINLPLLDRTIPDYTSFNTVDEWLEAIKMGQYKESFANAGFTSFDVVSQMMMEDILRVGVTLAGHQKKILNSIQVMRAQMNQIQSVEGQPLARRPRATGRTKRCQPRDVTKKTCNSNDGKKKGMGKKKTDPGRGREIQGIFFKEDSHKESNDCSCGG
Chain of FGFR3 (P22607 whole entry, looked up): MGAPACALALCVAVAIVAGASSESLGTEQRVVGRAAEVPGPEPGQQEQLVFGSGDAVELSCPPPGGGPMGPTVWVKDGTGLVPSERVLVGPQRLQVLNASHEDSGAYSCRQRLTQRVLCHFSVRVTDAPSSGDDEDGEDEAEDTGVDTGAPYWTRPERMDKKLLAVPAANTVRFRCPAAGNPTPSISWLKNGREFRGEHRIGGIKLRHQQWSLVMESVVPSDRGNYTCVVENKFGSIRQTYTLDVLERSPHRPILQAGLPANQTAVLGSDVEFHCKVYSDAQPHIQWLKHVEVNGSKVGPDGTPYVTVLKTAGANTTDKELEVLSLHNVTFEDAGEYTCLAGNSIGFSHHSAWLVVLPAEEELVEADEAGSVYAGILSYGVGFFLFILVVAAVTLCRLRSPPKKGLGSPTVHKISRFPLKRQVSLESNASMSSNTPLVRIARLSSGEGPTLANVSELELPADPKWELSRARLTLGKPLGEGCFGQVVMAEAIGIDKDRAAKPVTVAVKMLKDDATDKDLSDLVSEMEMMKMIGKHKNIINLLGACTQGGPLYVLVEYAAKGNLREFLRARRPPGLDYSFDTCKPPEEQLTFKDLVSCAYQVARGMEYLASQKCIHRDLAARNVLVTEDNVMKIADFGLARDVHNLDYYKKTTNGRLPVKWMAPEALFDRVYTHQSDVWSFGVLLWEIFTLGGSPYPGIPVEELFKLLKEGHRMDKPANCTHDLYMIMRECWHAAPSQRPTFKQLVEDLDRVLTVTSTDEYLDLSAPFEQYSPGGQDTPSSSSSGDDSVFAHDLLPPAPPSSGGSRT
Chain of Grb2 SH2 (P62993 whole entry, looked up): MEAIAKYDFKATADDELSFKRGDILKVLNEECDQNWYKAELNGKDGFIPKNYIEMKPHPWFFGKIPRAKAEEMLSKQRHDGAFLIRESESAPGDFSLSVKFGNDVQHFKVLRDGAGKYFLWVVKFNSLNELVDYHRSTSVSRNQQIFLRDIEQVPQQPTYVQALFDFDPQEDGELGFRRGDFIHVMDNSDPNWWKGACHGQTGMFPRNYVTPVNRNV

| Sequence | phosphorylation enrichment (AncSZ) | phosphorylation enrichment (EPHB1) | phosphorylation enrichment (EPHB2) | phosphorylation enrichment (FGFR1) | phosphorylation enrichment (FGFR3) | phosphorylation enrichment (Fer (mouse)) | phosphorylation enrichment (Fes) | phosphorylation enrichment (Fyn) | phosphorylation enrichment (Hck) | phosphorylation enrichment (Jak2) | phosphorylation enrichment (MERTK) | phosphorylation enrichment (c-Abl (mouse)) | phosphorylation enrichment (c-Src) | SH2 binding enrichment (Grb2 SH2) | SH2 binding enrichment (SHP2-C SH2) | SH2 binding enrichment (c-Src SH2) |
| --- | --- | --- | --- | --- | --- | --- | --- | --- | --- | --- | --- | --- | --- | --- | --- | --- |
| FFSSEYHCVGG [CTSC_Y345_Y347C_YF] | 2.38 | 2.37 | 2.15 | 7.57 | 4.98 | 0.545 | 1.17 | 1.58 | 1.66 | 1.08 | 0.651 | 1.88 | 2.1 | 0.87 | 0.8 | 0.709 |
| FGGTVYHSPVS [PRC1_Y511] | 0.894 | 0.535 | 0.418 | 0.473 | 0.525 | 0.434 | 0.687 | 0.588 | 0.851 | 0.555 | 0.444 | 3.96 | 0.771 | 0.851 | 2.81 | 1.72 |
| FGHTFYNQAIM [MCCC2_Y196_R193H] | 0.715 | 0.404 | 0.447 | 0.555 | 0.556 | 0.461 | 0.945 | 0.465 | 0.41 | 0.856 | 0.445 | 0.527 | 0.455 | 1.18 | 1.01 | 0.735 |
| FGISGYLVDSV [MAP2K3_Y214] | 0.982 | 0.377 | 0.501 | 0.478 | 0.631 | 0.529 | 1.2 | 0.467 | 0.471 | 0.97 | 0.459 | 0.722 | 0.504 | 0.949 | 0.883 | 0.656 |
| FGMQLYQKFMH [GRB14_Y347_N349K_YF] | 0.863 | 1.39 | 0.8 | 0.454 | 0.784 | 1.92 | 1 | 1.56 | 2.16 | 0.94 | 2.11 | 0.773 | 2.26 | 1.23 | 1.02 | 1.08 |
| FGSIMYEFVGK [SLC18A1_Y251_V249I] | 1.12 | 1.73 | 1.04 | 0.658 | 0.652 | 9.41 | 0.983 | 1.09 | 5.05 | 0.703 | 6.29 | 0.508 | 1.44 | 0.867 | 0.731 | 0.676 |
| FGSLLYKYAFK [FANCD2_Y458] | 0.839 | 0.468 | 0.391 | 0.352 | 0.684 | 0.324 | 1.04 | 0.366 | 0.379 | 0.858 | 0.433 | 0.627 | 0.392 | 0.922 | 0.731 | 0.485 |
| FHKALYTVRSF [PDE6C_Y266_YF] | 0.708 | 0.612 | 0.489 | 0.462 | 0.549 | 0.394 | 0.942 | 0.43 | 0.557 | 0.674 | 0.378 | 0.666 | 0.389 | 0.784 | 0.648 | 0.459 |
| FISVGYVDGTQ [HLA-B_Y51_D54G] | 0.741 | 0.268 | 0.401 | 0.353 | 0.587 | 0.358 | 0.807 | 0.315 | 0.375 | 0.696 | 0.348 | 0.572 | 0.398 | 0.781 | 0.753 | 0.527 |
| FLGRNYLETLM [DUS3L_Y610_D609N_YF] | 0.679 | 0.515 | 0.412 | 0.448 | 0.567 | 0.433 | 0.701 | 0.454 | 0.33 | 0.63 | 0.322 | 0.522 | 0.292 | 1.02 | 1.09 | 0.605 |
| FLNSIYQSRDE [ROS1_Y2227_K2228Q] | 0.743 | 0.533 | 0.441 | 0.353 | 0.785 | 0.548 | 0.764 | 4.07 | 4.33 | 0.791 | 0.489 | 0.775 | 4.63 | 0.789 | 0.74 | 0.361 |
| FLRTGYSIPFG [TGM1_Y370_V372I_YF] | 0.844 | 0.538 | 0.471 | 0.486 | 0.769 | 0.409 | 0.934 | 0.473 | 0.423 | 0.863 | 0.753 | 0.775 | 0.44 | 1.06 | 1.62 | 5.52 |
| FLTSSYINIST [IL23R_Y178_YF] | 0.834 | 0.437 | 0.434 | 0.517 | 0.489 | 0.375 | 0.779 | 0.48 | 0.422 | 1.34 | 0.47 | 0.498 | 0.44 | 22.6 | 1.33 | 2.66 |
| FMRGMYFRMKD [PLA2G6_Y541_YF] | 1.16 | 0.518 | 0.542 | 0.442 | 0.657 | 0.399 | 1.12 | 0.455 | 0.428 | 1.14 | 0.419 | 0.645 | 0.417 | 0.897 | 1.17 | 0.767 |

Reference: the supplement of paper PMC10065799, “High-throughput profiling of sequence recognition by tyrosine kinases and SH2 domains using bacterial peptide display” (eLife, 2023)
